1 protein from PMC5371579, “Expression of a new laccase from Moniliophthora roreri at high levels in Pichia pastoris and its potential application in micropollutant degradation” (AMB Express, 2017) can be followed below.

Common to all, as to test: purified protein
Assay type in all cases: biochemical, Moniliophthora roreri

Substrate in data set [1]: COc1cc(C=NN=Cc2cc(OC)c(O)c(OC)c2)cc(OC)c1O
Particulars: 100 mM citrate phosphate buffer, pH 4 (optimum).

Substrate in data set [2]: COc1cccc(OC)c1O
Particulars: 100 mM citrate phosphate buffer, pH 4 (optimum).

Substrate in data set [3]: COc1ccccc1O
Particulars: 100 mM citrate phosphate buffer, pH 5 (optimum).

Substrate in data set [4]: CCn1c(=NN=c2sc3cc(S(=O)(=O)O)ccc3n2CC)sc2cc(S(=O)(=O)O)ccc21
The conditions noted are these: 100 mM citrate phosphate buffer at optimal pH (pH 2 stated for ABTS).

B1: Mrl2 (Moniliophthora roreri MCA 2997) (protein)
chain: SIGPIADLVISNQDVSPDGFTRSAVVAGGDTIGPLIVGNKNDNLQINVVNNLDDDTMLQSTSIHWHGFFQQSTNWADGTAFVNQCPIAKGNSFLYDFDATDQAGTFWYHSHLSTQYCDGLRGPIVIYDPDDPHASLYDVDDESTVITLADWYHTKAKEITFGTPDSTLINGLGRWSQGNETDLSVITVTSGQRYRMRLINTACDAAYTFSIDNHTMTVIEADAVNIEPIEVDSLTIYAGQRYSFVLNADQAVGNYWIRANPNIGTMGYTNGINSAILRYDTAEEEEPDVLDITSTNSLSEADLVPLENPGAPGDPVVGGVDYALHLDFAFTSAATFTVNDATFVPPTVPVLLQILSGAQTADTLLPSGSVVALPSNSTIELSMTGGLLGLEHPIHLHGHNFDVVRVAGSTEYNYENPIRRDVVNAGSTSDNVTIRFTTDNPGPWILHCHIDWHLEAGFAIVFAEATDEWVDTIDPSDAWENLCPTYDALSDDDL
notes: native signal peptide replaced by S. cerevisiae alpha-factor leader (Kex2 cleavage; mature N-terminus SIGPI from primer); no tag (stop codon in reverse primer); codon-optimized gene; secreted from Pichia pastoris X-33, DEAE-purified, glycosylated (~90 kDa; calculated 54 kDa); EC 1.10.3.2
With B1, the Km in data set [1] is given as 12.45 ± 1.6 µM; in data set [2], 358 ± 58.5 µM; in data set [3] it was 2235 ± 117.5 µM; in data set [4], 24.13 ± 1.9 µM. For the same protein, the catalytic constant (kcat) in data set [1] was found to be 21 s⁻¹; in data set [2] it was 74 s⁻¹; in data set [3] it was 37 s⁻¹; in data set [4], 316 s⁻¹. Besides, the kcat/Km was 1.68e+06 M⁻¹ s⁻¹ in data set [1], 207000 M⁻¹ s⁻¹ in data set [2], 16000 M⁻¹ s⁻¹ in data set [3] and 1.31e+07 M⁻¹ s⁻¹ in data set [4].

A word on the Km: it is the concentration of substrate that gives half-maximal velocity. For orientation: kcat means the maximal rate divided by the concentration of active sites. One may read the kcat/Km as the second-order rate constant that governs catalysis at low substrate concentration.
